{
  "source": "paper PMC4014563",
  "about": "“A High-Throughput Method to Examine Protein-Nucleotide Interactions Identifies Targets of the Bacterial Transcriptional Regulatory Protein Fur”",
  "key": {"[1]": {"target": "T1, Fur (ferric uptake regulator) (Neisseria gonorrhoeae F62, UniProt Q51008 1-144)", "T1 sequence": "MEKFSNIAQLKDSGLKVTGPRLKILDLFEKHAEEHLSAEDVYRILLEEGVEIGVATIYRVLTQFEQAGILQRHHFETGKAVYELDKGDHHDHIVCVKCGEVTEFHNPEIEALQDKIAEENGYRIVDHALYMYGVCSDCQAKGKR", "assay": "IRIS; 400 nM Fur (concentration implied); ~1 dimer/dsDNA; 20 mM Tris-Cl pH 7.9, 5 mM MgCl2, 40 mM KCl, 0.125 mM MnCl2, 2 mM DTT, 10% glycerol, 0.19 ug/uL poly dIdC (EMSA also 3.125 ug/uL BSA), RT; IRIS 2 hr, EMSA 30 min with 12.5 nM probe", "conditions": "protein: recombinant; tags: N-terminal 6xHis (pET15b) cleaved with thrombin and removed; chain copies: 2; label: surface-immobilized; blunt"}, "[2]": {"target": "T1, Fur (ferric uptake regulator)", "assay": "IRIS; no DSH increase up to 800 nM Fur; 20 mM Tris-Cl pH 7.9, 5 mM MgCl2, 40 mM KCl, 0.125 mM MnCl2, 2 mM DTT, 10% glycerol, 0.19 ug/uL poly dIdC (EMSA also 3.125 ug/uL BSA), RT; IRIS 2 hr, EMSA 30 min with 12.5 nM probe", "conditions": "protein: recombinant; tags: N-terminal 6xHis (pET15b) cleaved with thrombin and removed; chain copies: 2; label: surface-immobilized; blunt"}, "[3]": {"target": "T1, Fur (ferric uptake regulator)", "assay": "IRIS; 400 nM Fur; 0.5 dimer/dsDNA; 20 mM Tris-Cl pH 7.9, 5 mM MgCl2, 40 mM KCl, 0.125 mM MnCl2, 2 mM DTT, 10% glycerol, 0.19 ug/uL poly dIdC (EMSA also 3.125 ug/uL BSA), RT; IRIS 2 hr, EMSA 30 min with 12.5 nM probe", "conditions": "protein: recombinant; tags: N-terminal 6xHis (pET15b) cleaved with thrombin and removed; chain copies: 2; label: surface-immobilized; blunt"}, "[4]": {"target": "T1, Fur (ferric uptake regulator)", "assay": "EMSA; Mn2+; apparent Kd; 20 mM Tris-Cl pH 7.9, 5 mM MgCl2, 40 mM KCl, 0.125 mM MnCl2, 2 mM DTT, 10% glycerol, 0.19 ug/uL poly dIdC (EMSA also 3.125 ug/uL BSA), RT; IRIS 2 hr, EMSA 30 min with 12.5 nM probe", "conditions": "protein: recombinant; tags: N-terminal 6xHis (pET15b) cleaved with thrombin and removed; chain copies: 2; label: surface-immobilized (IRIS); 32P (EMSA); blunt"}, "[5]": {"target": "T1, Fur (ferric uptake regulator)", "assay": "IRIS; 200 nM Fur; 1 dimer/dsDNA; 20 mM Tris-Cl pH 7.9, 5 mM MgCl2, 40 mM KCl, 0.125 mM MnCl2, 2 mM DTT, 10% glycerol, 0.19 ug/uL poly dIdC (EMSA also 3.125 ug/uL BSA), RT; IRIS 2 hr, EMSA 30 min with 12.5 nM probe", "conditions": "protein: recombinant, tags: N-terminal 6xHis (pET15b) cleaved with thrombin and removed, chain copies: 2, blunt"}},
  "data": [
    {"binder": "NGO1189 promoter probe (dsDNA, 5' amino-C6 on strand 1) DNA 1: ACTGCCGGTTTGAAAAAAGAATCCATATCGGTGTTTCCGCGCAGGAGGC DNA 2: GCCTCCTGCGCGGAAACACCGATATGGATTCTTTTTTCAAACCGGCAGT", "values": [
      {"measurement": "binding signal", "setting": "[1]", "value": "2 ± 0.03", "unit": "nm DSH"}
    ]},
    {"binder": "NGO1683 promoter probe (NGO1684 in Table 1) (dsDNA, 5' amino-C6 on strand 1) DNA 1: GCGGCGATTGTAATATAAGCGGCGGTATTTGTGTAGTTTTCTTCAGACG DNA 2: CGTCTGAAGAAAACTACACAAATACCGCCGCTTATATTACAATCGCCGC", "values": [
      {"measurement": "binding result", "setting": "[2]", "value": "no binding"}
    ]},
    {"binder": "NGO0304 promoter probe (dsDNA, 5' amino-C6 on strand 1) DNA 1: GAACGAAAATTGATAAAACAAAAGTTAATTAATTGATTGAGAACATAAC DNA 2: GTTATGTTCTCAATCAATTAATTAACTTTTGTTTTATCAATTTTCGTTC", "values": [
      {"measurement": "binding signal", "setting": "[1]", "value": "2 ± 0.1", "unit": "nm DSH"}
    ]},
    {"binder": "NGO1948 promoter probe (dsDNA, 5' amino-C6 on strand 1) DNA 1: TCTTTCCGTCAAAATACTTTCTTTTTATATTCATTAACTTGTTAAATTA DNA 2: TAATTTAACAAGTTAATGAATATAAAAAGAAAGTATTTTGACGGAAAGA", "values": [
      {"measurement": "binding signal", "setting": "[3]", "value": "1.7 ± 0.07", "unit": "nm DSH"}
    ]},
    {"binder": "NGO0073 promoter probe (dsDNA, 5' amino-C6 on strand 1 (IRIS)) DNA 1: CTGTATAAATGATAATGGTTCTATTTTAATAAAGCACAACGCGGCTTGT DNA 2: ACAAGCCGCGTTGTGCTTTATTAAAATAGAACCATTATCATTTATACAG", "values": [
      {"measurement": "Kd", "setting": "[4]", "value": "39.8 ± 6.3", "unit": "nM"}
    ]},
    {"binder": "NGO1284 promoter probe (dsDNA, 5' amino-C6 on strand 1) DNA 1: ACACGGGAAATAATATCAATATATTGATTTACAAACATAAAAATCATGC DNA 2: GCATGATTTTTATGTTTGTAAATCAATATATTGATATTATTTCCCGTGT", "values": [
      {"measurement": "binding signal", "setting": "[3]", "value": "1.7 ± 0.03", "unit": "nm DSH"}
    ]},
    {"binder": "NGO1419 promoter probe (dsDNA, 5' amino-C6 on strand 1) DNA 1: TGACGAAAAAACAAAGAAGTATACTTCTTTTTAGTTATGGTTGATTCCA DNA 2: TGGAATCAACCATAACTAAAAAGAAGTATACTTCTTTGTTTTTTCGTCA", "values": [
      {"measurement": "binding signal", "setting": "[5]; label: surface-immobilized", "value": "1.9 ± 0.4", "unit": "nm DSH"}
    ]},
    {"binder": "NGO1845 promoter probe (dsDNA, 5' amino-C6 on strand 1) DNA 1: CGGCAAACAAGAAAATCATCTTTTTTCTTGTCGTTATGCTTGACTGTCT DNA 2: AGACAGTCAAGCATAACGACAAGAAAAAAGATGATTTTCTTGTTTGCCG", "values": [
      {"measurement": "binding signal", "setting": "[3]", "value": "1.7 ± 0.3", "unit": "nm DSH"}
    ]},
    {"binder": "NGO0101 promoter probe (dsDNA, 5' amino-C6 on strand 1 (IRIS)) DNA 1: CATATTTGAATATAAAAAAGAGCATTGTTGCGTTATCCAATGCTGTAAT DNA 2: ATTACAGCATTGGATAACGCAACAATGCTCTTTTTTATATTCAAATATG", "values": [
      {"measurement": "binding signal", "setting": "[5]; label: surface-immobilized (IRIS), 32P (EMSA)", "value": "1.9 ± 0.4", "unit": "nm DSH"},
      {"measurement": "Kd", "setting": "[4]", "value": "406 ± 145", "unit": "nM"}
    ]},
    {"binder": "NGO0899 promoter probe (dsDNA, 5' amino-C6 on strand 1) DNA 1: TTTTATGCCGAAAATTGATTTTTTTTAAATTTTTTGTTTCTAAAATTTT DNA 2: AAAATTTTAGAAACAAAAAATTTAAAAAAAATCAATTTTCGGCATAAAA", "values": [
      {"measurement": "binding signal", "setting": "[1]", "value": "2.2 ± 0.1", "unit": "nm DSH"}
    ]},
    {"binder": "NGO0641 promoter probe (dsDNA, 5' amino-C6 on strand 1) DNA 1: AAAGACAGCAAAGAATTGATTTTATTATAATTTATTTGTAAAGCCATTT DNA 2: AAATGGCTTTACAAATAAATTATAATAAAATCAATTCTTTGCTGTCTTT", "values": [
      {"measurement": "binding signal", "setting": "[5]; label: surface-immobilized", "value": "2 ± 0.1", "unit": "nm DSH"}
    ]},
    {"binder": "NGO0155 promoter probe (dsDNA, 5' amino-C6 on strand 1) DNA 1: GATATTTTGTGCTAAAAATTTATATAATATTTAAATTAATATCAAGTTA DNA 2: TAACTTGATATTAATTTAAATATTATATAAATTTTTAGCACAAAATATC", "values": [
      {"measurement": "binding signal", "setting": "[1]", "value": "1.9 ± 0.1", "unit": "nm DSH"}
    ]},
    {"binder": "NGO1745 promoter probe (dsDNA, 5' amino-C6 on strand 1) DNA 1: TACAGATGAAGACAATGAGCGTGCTGTTAAAGAGTTATTTAAGTCATTT DNA 2: AAATGACTTAAATAACTCTTTAACAGCACGCTCATTGTCTTCATCTGTA", "values": [
      {"measurement": "binding result", "setting": "[2]", "value": "no binding"}
    ]},
    {"binder": "fur promoter Fur box probe (dsDNA, 5' amino-C6 on strand 1 (IRIS)) DNA 1: CTGCTTGAATATTTTATAAAAGCGAACGATAATCATACGCTTAAGCGGT DNA 2: ACCGCTTAAGCGTATGATTATCGTTCGCTTTTATAAAATATTCAAGCAG", "values": [
      {"measurement": "Kd", "setting": "[4]", "value": "31.8 ± 7.9", "unit": "nM"}
    ]}
  ]
}
